According to the supplement of paper PMC7125110:
± gives the standard error. This sample holds only a part of the variants without activity.

B1: glmS ribozyme (parent)
chain: AUAAAAGCGCCAGAACUACAGAAAUGUAGUUGACGAGGAGGAGGUUUAUCGAAUUUUCGGCGGAUGCCUCCAAA

Experiments:
Conditions in all cases: with glucosamine-6-phosphate
[1] = variants of: B1; assay: self-cleavage kobs at 40 uM GlcN6P; higher = faster cleavage; RNA array
How it was run: (§1)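 Ribozyme variants carrying barcodes were transcribed in situ on sequenced MiSeq chips by E. coli RNA polymerase and tracked at 37 °C with a hybridised Cy3 probe. They were exposed to 40 μM to 10 mM glucosamine-6-phosphate in HEPES/KCl/Mg(OAc)2 buffer. kobs came from exponential decay fits of normalised per-tile medians, and kcat and KM from weighted Michaelis–Menten fits.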

[2] = variants of: B1; assay: self-cleavage kobs at 160 uM GlcN6P; higher = faster cleavage; RNA array
How it was run: as §1

[3] = variants of: B1; assay: self-cleavage kobs at 2500 uM GlcN6P; higher = faster cleavage; RNA array
How it was run: as §1

[4] = variants of: B1; assay: self-cleavage kobs at 640 uM GlcN6P; higher = faster cleavage; RNA array
How it was run: as §1

[5] = variants of: B1; assay: self-cleavage kobs at 10000 uM GlcN6P; higher = faster cleavage; RNA array
How it was run: as §1

Variant	self-cleavage kobs at 40 uM GlcN6P [1] [s⁻¹]	self-cleavage kobs at 160 uM GlcN6P [2] [s⁻¹]	self-cleavage kobs at 2500 uM GlcN6P [3] [s⁻¹]	self-cleavage kobs at 640 uM GlcN6P [4] [s⁻¹]	self-cleavage kobs at 10000 uM GlcN6P [5] [s⁻¹]
G32A G43C	< 1e-05	< 1e-05	< 1e-05	–	–
A36G C50G	3.66e-05 ± 1.5e-05	–	–	–	–
G38C G44U	< 1e-05	< 1e-05	< 1e-05	< 1e-05	< 1e-05
U2G A33G	< 1e-05	–	–	–	< 1e-05
A6U A39U G40A	< 1e-05	–	–	–	–
G40A U57G	< 1e-05	–	< 1e-05	< 1e-05	–
G13U G32U A36G G38C U54G	< 1e-05	–	–	–	–
G37C G41U	< 1e-05	< 1e-05	< 1e-05	< 1e-05	< 1e-05
U45C C58A	< 1e-05	< 1e-05	–	–	–
G32A C34U C50U C61A G66A	4.94e-05 ± 2.4e-05	–	–	–	–
G29A U47G	2.24e-05 ± 1.1e-05	–	–	0.000161 ± 6.4e-05	0.000713 ± 0.00011
G7U U46C C70G	< 1e-05	–	< 1e-05	–	< 1e-05
A6C G37A G41A A42U	< 1e-05	–	–	–	< 1e-05
G37U A53U U55A	< 1e-05	–	–	–	–
G32C G37C A48U G59C	< 1e-05	–	–	–	–
A12C G29A G35C A52U U54A G60U C67G	< 1e-05	–	–	–	–
U46C A48G C50A C71G	< 1e-05	–	–	–	–
A36G G38C U55A	< 1e-05	–	–	–	< 1e-05
G13A A36G C50G G66C	0.000105 ± 3.1e-05	–	–	–	–
G9U G13A A36U G38A U65G	< 1e-05	–	–	–	< 1e-05
G35C A39C U49A A53U	< 1e-05	–	–	–	–
U30C C50A U65A U69G	4.39e-05 ± 1.7e-05	–	5.84e-05 ± 2.3e-05	0.000207 ± 5.3e-05	3.19e-05 ± 1.6e-05
A48G G60C C61G	< 1e-05	–	–	–	–
G32C U49C	< 1e-05	< 1e-05	–	–	–
A36C G66A	< 1e-05	–	–	–	< 1e-05
C10A U47A	< 1e-05	< 1e-05	–	< 1e-05	–

Variant	self-cleavage kobs at 40 uM GlcN6P [1] [s⁻¹]	self-cleavage kobs at 160 uM GlcN6P [2] [s⁻¹]	self-cleavage kobs at 2500 uM GlcN6P [3] [s⁻¹]	self-cleavage kobs at 640 uM GlcN6P [4] [s⁻¹]	self-cleavage kobs at 10000 uM GlcN6P [5] [s⁻¹]
U30A G38C A52G U69A	< 1e-05	–	< 1e-05	–	< 1e-05
A6U A39C	< 1e-05	–	–	–	–
G37U A52U U57A	< 1e-05	–	–	–	–
G7U C10G A15U C34A G40U C58G G60C G63A	< 1e-05	–	–	< 1e-05	< 1e-05
C34A U65A	< 1e-05	–	< 1e-05	–	< 1e-05
A33G G40U G59U	< 1e-05	< 1e-05	< 1e-05	< 1e-05	–
A36U C58G C70A	8.19e-05 ± 2.5e-05	0.000111 ± 3.1e-05	4.59e-05 ± 2.3e-05	–	5.18e-05 ± 1.5e-05
C8A G37A	< 1e-05	–	–	–	< 1e-05
A14G U47G C58G C71U	4.07e-05 ± 2e-05	–	–	–	9.43e-05 ± 1.6e-05
G32U G41C	< 1e-05	< 1e-05	–	–	–
A14C G60U C71G	< 1e-05	–	–	–	< 1e-05
G9U G41C A42U G44A	< 1e-05	< 1e-05	< 1e-05	< 1e-05	–
A36G A39U A48U C70G	< 1e-05	< 1e-05	< 1e-05	< 1e-05	< 1e-05
A14C G43C	< 1e-05	–	< 1e-05	< 1e-05	–
A6C G29U G32A U57A	< 1e-05	–	–	< 1e-05	< 1e-05
C16A G44C C50A	< 1e-05	–	–	–	< 1e-05
G13A G44C C61A U69G	< 1e-05	–	–	–	–
G37A C68A	< 1e-05	< 1e-05	< 1e-05	< 1e-05	< 1e-05
G38U G66C	< 1e-05	–	–	< 1e-05	–
G40A U47A A53U	6.84e-05 ± 2.5e-05	–	0.000618 ± 0.00018	–	–
C8G A48U C71G	< 1e-05	–	–	–	< 1e-05
C19U G38A	< 1e-05	–	–	–	–
G37C U46C	< 1e-05	–	–	–	–
G29U A42G G43A	< 1e-05	–	–	–	–
G32C G35A G51U	< 1e-05	–	< 1e-05	–	< 1e-05
G51A A52C	< 1e-05	< 1e-05	–	–	< 1e-05

Variant	self-cleavage kobs at 40 uM GlcN6P [1] [s⁻¹]	self-cleavage kobs at 160 uM GlcN6P [2] [s⁻¹]	self-cleavage kobs at 2500 uM GlcN6P [3] [s⁻¹]	self-cleavage kobs at 640 uM GlcN6P [4] [s⁻¹]	self-cleavage kobs at 10000 uM GlcN6P [5] [s⁻¹]
C16G C34U G59A G60U	< 1e-05	–	–	–	–
A12G G13C A33U G63U	< 1e-05	–	–	–	< 1e-05
G40U U49C	< 1e-05	< 1e-05	–	< 1e-05	< 1e-05
A48U G62U	< 1e-05	< 1e-05	< 1e-05	< 1e-05	< 1e-05
G41C G43A C50G C67A U69C	< 1e-05	–	–	–	–
G40U C50A G66U	< 1e-05	–	< 1e-05	< 1e-05	< 1e-05
U65C C70A	< 1e-05	< 1e-05	–	–	–
C10G A33C	< 1e-05	< 1e-05	< 1e-05	–	< 1e-05
A15G U46G A48U G59A	< 1e-05	< 1e-05	< 1e-05	–	< 1e-05
G32C A53U G66U	< 1e-05	–	–	–	–
C16G G59C	< 1e-05	< 1e-05	< 1e-05	< 1e-05	< 1e-05
A48C C50U	< 1e-05	< 1e-05	< 1e-05	< 1e-05	< 1e-05
A12G G38A G66U	< 1e-05	< 1e-05	–	< 1e-05	< 1e-05
C8U G59A	< 1e-05	< 1e-05	–	< 1e-05	< 1e-05
G7A G38C	< 1e-05	< 1e-05	< 1e-05	< 1e-05	< 1e-05
C8A A15G	< 1e-05	< 1e-05	< 1e-05	< 1e-05	< 1e-05
C61U A64G C70G	< 1e-05	–	–	–	–
C8U G13U	< 1e-05	–	< 1e-05	< 1e-05	< 1e-05
U30G C70U	0.000299 ± 3.2e-05	0.000471 ± 8.6e-05	0.00367 ± 0.00096	0.00108 ± 0.00014	0.00516 ± 0.00081
U30C U57C	< 1e-05	–	–	< 1e-05	–
G32C A39G G43A	< 1e-05	–	–	–	–
C8U C50A G51A U69G	0.00046 ± 0.00016	–	–	–	0.000709 ± 0.00014
C16G A53G C67A	2.96e-05 ± 1.3e-05	–	–	–	0.000212 ± 5.9e-05
G32C G37C C58U	< 1e-05	–	–	–	–
A14U G41C C70G	0.000998 ± 0.00029	0.00172 ± 0.00056	0.0459 ± 0.018	0.00931 ± 0.0023	0.0658 ± 0.026
U46A C50G	< 1e-05	–	< 1e-05	–	< 1e-05

Variant	self-cleavage kobs at 40 uM GlcN6P [1] [s⁻¹]	self-cleavage kobs at 160 uM GlcN6P [2] [s⁻¹]	self-cleavage kobs at 2500 uM GlcN6P [3] [s⁻¹]	self-cleavage kobs at 640 uM GlcN6P [4] [s⁻¹]	self-cleavage kobs at 10000 uM GlcN6P [5] [s⁻¹]
A6U G13C A15U	< 1e-05	–	–	–	< 1e-05
G32U C61G	< 1e-05	–	–	< 1e-05	–
G29U U30C	< 1e-05	–	< 1e-05	< 1e-05	–
A6G G13U	< 1e-05	< 1e-05	–	< 1e-05	–
C10A U47G G63C C68G	9.61e-05 ± 3.8e-05	–	–	–	–
A15G U31G U69C	4.45e-05 ± 1.7e-05	–	–	–	–
U45C C50U	< 1e-05	< 1e-05	–	< 1e-05	–
C16G C34A	< 1e-05	–	–	< 1e-05	< 1e-05
G7A U56C C67U C68U	< 1e-05	< 1e-05	–	< 1e-05	–
A15U G29U G60C	< 1e-05	–	–	–	–
C8A G29U U57A G62C C67U	< 1e-05	–	–	–	–
C16G G43C	< 1e-05	–	–	< 1e-05	< 1e-05
C34G G41A G44U A53U	< 1e-05	–	–	–	< 1e-05
C10G A12U U30G	< 1e-05	–	–	–	–
A6C G44C	< 1e-05	< 1e-05	–	< 1e-05	< 1e-05
C8G U46A C70G	< 1e-05	–	–	–	–
C8A U31A	< 1e-05	–	–	–	–
G40A G41C G43U	< 1e-05	–	–	–	–
A6U G35U	< 1e-05	< 1e-05	< 1e-05	< 1e-05	< 1e-05
A6G A48U G66U U69C	< 1e-05	–	–	–	< 1e-05
G7A A15C C50U C70A	0.000237 ± 4.9e-05	–	–	–	–
A6C G29C A53U	< 1e-05	< 1e-05	–	–	–
A6U G35U A39G C71A	< 1e-05	–	–	–	< 1e-05
G9C U45G	< 1e-05	< 1e-05	< 1e-05	< 1e-05	–
U30G G32C A39G U45C A52U G63A	< 1e-05	–	< 1e-05	< 1e-05	< 1e-05
